Key:
[1] = molecular target: the molecule itself; assay: SEC peak area ratio after coexpression of full-length heavy chain, light chain and Fc fragment
[2] = molecular target: T1, IgG2 Fc fragment without modification (SEQ ID NO: 103) (Homo sapiens (Human), UniProt P01859 99-324 = IgG part); assay: co-expression of full-length heavy chain, light chain and Fc fragment in Expi293F, affinity purification, SEC peak area ratio;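 also: purified antibodies analysed by size exclusion chromatography with UV detection at 215 nm, each species given as share of total chromatogram peak area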
T1 construct: Fc fragment co-expressed with a full-length heavy chain and the light chain; the associating unit is one Fc chain; also called WT-IgG2 Fc fragment

[3] = molecular target: the molecule itself; assay: as above

Binder | Heteromultimer (%) [2] [%] | Homo full-length heavy chain (%) [1] [%] | Homo full-length heavy chain (%) [3] [%]
IgG4 full-length heavy chain with T366W/L368A/Y407V (SEQ ID NO: 94) with light chain SEQ ID NO: 61 (antibody) heavy: QVQLQESGPGLVRPSQTLSLTCTVSGYSITSDHAWSWVRQPPGRGLEWIGYISYSGITTYNPSLKSRVTMLRDTSKNQFSLRLSSVTAADTAVYYCARSLARTTAMDYWGQGSLVTVSSASTKGPSVFPLAPCSRSTSESTAALGCLVKDYFPEPVTVSWNSGALTSGVHTFPAVLQSSGLYSLSSVVTVPSSSLGTKTYTCNVDHKPSNTKVDKRVESKYGPPCPPCPAPEFLGGPSVFLFPPKPKDTLMISRTPEVTCVVVDVSQEDPEVQFNWYVDGVEVHNAKTKPREEQFNSTYRVVSVLTVLHQDWLNGKEYKCKVSNKGLPSSIEKTISKAKGQPREPQVYTLPPSQEEMTKNQVSLWCAVKGFYPSDIAVEWESNGQPENNYKTTPPVLDSDGSFFLVSRLTVDKSRWQEGNVFSCSVMHEALHNHYTQKSLSLSL light: not shown | – | 83 | –
IgG4 full-length heavy chain K392D/D399K/R409D (SEQ ID NO: 97) with light chain SEQ ID NO: 61 (antibody) heavy: QVQLQESGPGLVRPSQTLSLTCTVSGYSITSDHAWSWVRQPPGRGLEWIGYISYSGITTYNPSLKSRVTMLRDTSKNQFSLRLSSVTAADTAVYYCARSLARTTAMDYWGQGSLVTVSSASTKGPSVFPLAPCSRSTSESTAALGCLVKDYFPEPVTVSWNSGALTSGVHTFPAVLQSSGLYSLSSVVTVPSSSLGTKTYTCNVDHKPSNTKVDKRVESKYGPPCPPCPAPEFLGGPSVFLFPPKPKDTLMISRTPEVTCVVVDVSQEDPEVQFNWYVDGVEVHNAKTKPREEQFNSTYRVVSVLTVLHQDWLNGKEYKCKVSNKGLPSSIEKTISKAKGQPREPQVYTLPPSQEEMTKNQVSLTCLVKGFYPSDIAVEWESNGQPENNYDTTPPVLKSDGSFFLYSDLTVDKSRWQEGNVFSCSVMHEALHNHYTQKSLSLSL light: not shown | 0 | – | 82.5
IgG4 full-length heavy chain with T394W/F405A (SEQ ID NO: 93) with light chain SEQ ID NO: 61 (antibody) heavy: QVQLQESGPGLVRPSQTLSLTCTVSGYSITSDHAWSWVRQPPGRGLEWIGYISYSGITTYNPSLKSRVTMLRDTSKNQFSLRLSSVTAADTAVYYCARSLARTTAMDYWGQGSLVTVSSASTKGPSVFPLAPCSRSTSESTAALGCLVKDYFPEPVTVSWNSGALTSGVHTFPAVLQSSGLYSLSSVVTVPSSSLGTKTYTCNVDHKPSNTKVDKRVESKYGPPCPPCPAPEFLGGPSVFLFPPKPKDTLMISRTPEVTCVVVDVSQEDPEVQFNWYVDGVEVHNAKTKPREEQFNSTYRVVSVLTVLHQDWLNGKEYKCKVSNKGLPSSIEKTISKAKGQPREPQVYTLPPSQEEMTKNQVSLTCLVKGFYPSDIAVEWESNGQPENNYKTWPPVLDSDGSFALYSRLTVDKSRWQEGNVFSCSVMHEALHNHYTQKSLSLSL light: not shown | – | 82 | –
IgG1 full-length heavy chain E356K/K392D/D399K/K409D (SEQ ID NO: 56) with light chain SEQ ID NO: 61 (antibody, also called Sample No. 229) heavy: QVQLQESGPGLVRPSQTLSLTCTVSGYSITSDHAWSWVRQPPGRGLEWIGYISYSGITTYNPSLKSRVTMLRDTSKNQFSLRLSSVTAADTAVYYCARSLARTTAMDYWGQGSLVTVSSASTKGPSVFPLAPSSKSTSGGTAALGCLVKDYFPEPVTVSWNSGALTSGVHTFPAVLQSSGLYSLSSVVTVPSSSLGTQTYICNVNHKPSNTKVDKRVEPKSCDKTHTCPPCPAPELLGGPSVFLFPPKPKDTLMISRTPEVTCVVVDVSHEDPEVKFNWYVDGVEVHNAKTKPREEQYNSTYRVVSVLTVLHQDWLNGKEYKCKVSNKALPAPIEKTISKAKGQPREPQVYTLPPSRKEMTKNQVSLTCLVKGFYPSDIAVEWESNGQPENNYDTTPPVLKSDGSFFLYSDLTVDKSRWQQGNVFSCSVMHEALHNHYTQKSLSLSP light: not shown | 0 | – | 81.4
IgG1 full-length heavy chain E356K/D399K/K409E/K439E (SEQ ID NO: 36) with light chain SEQ ID NO: 61 (antibody) heavy: QVQLQESGPGLVRPSQTLSLTCTVSGYSITSDHAWSWVRQPPGRGLEWIGYISYSGITTYNPSLKSRVTMLRDTSKNQFSLRLSSVTAADTAVYYCARSLARTTAMDYWGQGSLVTVSSASTKGPSVFPLAPSSKSTSGGTAALGCLVKDYFPEPVTVSWNSGALTSGVHTFPAVLQSSGLYSLSSVVTVPSSSLGTQTYICNVNHKPSNTKVDKRVEPKSCDKTHTCPPCPAPELLGGPSVFLFPPKPKDTLMISRTPEVTCVVVDVSHEDPEVKFNWYVDGVEVHNAKTKPREEQYNSTYRVVSVLTVLHQDWLNGKEYKCKVSNKALPAPIEKTISKAKGQPREPQVYTLPPSRKEMTKNQVSLTCLVKGFYPSDIAVEWESNGQPENNYKTTPPVLKSDGSFFLYSELTVDKSRWQQGNVFSCSVMHEALHNHYTQESLSLSP light: not shown | 0 | – | 84.3
IgG2 full-length heavy chain E345R/Q347R/K360D/T366V/D399M/Y407A/K409V (SEQ ID NO: 100) with light chain SEQ ID NO: 61 (antibody, also called Sample No. 234) heavy: QVQLQESGPGLVRPSQTLSLTCTVSGYSITSDHAWSWVRQPPGRGLEWIGYISYSGITTYNPSLKSRVTMLRDTSKNQFSLRLSSVTAADTAVYYCARSLARTTAMDYWGQGSLVTVSSASTKGPSVFPLAPCSRSTSESTAALGCLVKDYFPEPVTVSWNSGALTSGVHTFPAVLQSSGLYSLSSVVTVPSSNFGTQTYTCNVDHKPSNTKVDKTVERKCCVECPPCPAPPVAGPSVFLFPPKPKDTLMISRTPEVTCVVVDVSHEDPEVQFNWYVDGVEVHNAKTKPREEQFNSTFRVVSVLTVVHQDWLNGKEYKCKVSNKGLPAPIEKTISKTKGQPRRPRVYTLPPSREEMTDNQVSLVCLVKGFYPSDIAVEWESNGQPENNYKTTPPMLMSDGSFFLASVLTVDKSRWQQGNVFSCSVMHEALHNHYTQKSLSLSP light: not shown | 0 | – | 76.1
IgG2 full-length heavy chain with T394W/F405A (SEQ ID NO: 87) with light chain SEQ ID NO: 61 (antibody, also called Sample No. 208 full-length heavy chain) heavy: QVQLQESGPGLVRPSQTLSLTCTVSGYSITSDHAWSWVRQPPGRGLEWIGYISYSGITTYNPSLKSRVTMLRDTSKNQFSLRLSSVTAADTAVYYCARSLARTTAMDYWGQGSLVTVSSASTKGPSVFPLAPCSRSTSESTAALGCLVKDYFPEPVTVSWNSGALTSGVHTFPAVLQSSGLYSLSSVVTVPSSNFGTQTYTCNVDHKPSNTKVDKTVERKCCVECPPCPAPPVAGPSVFLFPPKPKDTLMISRTPEVTCVVVDVSHEDPEVQFNWYVDGVEVHNAKTKPREEQFNSTFRVVSVLTVVHQDWLNGKEYKCKVSNKGLPAPIEKTISKTKGQPREPQVYTLPPSREEMTKNQVSLTCLVKGFYPSDIAVEWESNGQPENNYKTWPPMLDSDGSFALYSKLTVDKSRWQQGNVFSCSVMHEALHNHYTQKSLSLSP light: not shown | – | 80.8 | –

Second part, led by results:

Heteromultimer (%) [2] [%] | Binder | Homo full-length heavy chain (%) [1] [%] | Homo full-length heavy chain (%) [3] [%]
0 | IgG4 full-length heavy chain K392L/T394W/F405A/Y407V (SEQ ID NO: 96) with light chain SEQ ID NO: 61 (antibody) heavy: QVQLQESGPGLVRPSQTLSLTCTVSGYSITSDHAWSWVRQPPGRGLEWIGYISYSGITTYNPSLKSRVTMLRDTSKNQFSLRLSSVTAADTAVYYCARSLARTTAMDYWGQGSLVTVSSASTKGPSVFPLAPCSRSTSESTAALGCLVKDYFPEPVTVSWNSGALTSGVHTFPAVLQSSGLYSLSSVVTVPSSSLGTKTYTCNVDHKPSNTKVDKRVESKYGPPCPPCPAPEFLGGPSVFLFPPKPKDTLMISRTPEVTCVVVDVSQEDPEVQFNWYVDGVEVHNAKTKPREEQFNSTYRVVSVLTVLHQDWLNGKEYKCKVSNKGLPSSIEKTISKAKGQPREPQVYTLPPSQEEMTKNQVSLTCLVKGFYPSDIAVEWESNGQPENNYLTWPPVLDSDGSFALVSRLTVDKSRWQEGNVFSCSVMHEALHNHYTQKSLSLSL light: not shown | – | 81.5
0 | IgG4 full-length heavy chain Q347R/K360E/D399V/F405T/R409W (SEQ ID NO: 95) with light chain SEQ ID NO: 61 (antibody) heavy: QVQLQESGPGLVRPSQTLSLTCTVSGYSITSDHAWSWVRQPPGRGLEWIGYISYSGITTYNPSLKSRVTMLRDTSKNQFSLRLSSVTAADTAVYYCARSLARTTAMDYWGQGSLVTVSSASTKGPSVFPLAPCSRSTSESTAALGCLVKDYFPEPVTVSWNSGALTSGVHTFPAVLQSSGLYSLSSVVTVPSSSLGTKTYTCNVDHKPSNTKVDKRVESKYGPPCPPCPAPEFLGGPSVFLFPPKPKDTLMISRTPEVTCVVVDVSQEDPEVQFNWYVDGVEVHNAKTKPREEQFNSTYRVVSVLTVLHQDWLNGKEYKCKVSNKGLPSSIEKTISKAKGQPREPRVYTLPPSQEEMTENQVSLTCLVKGFYPSDIAVEWESNGQPENNYKTTPPVLVSDGSFTLYSWLTVDKSRWQEGNVFSCSVMHEALHNHYTQKSLSLSL light: not shown | – | 83.5
0 | IgG1 full-length heavy chain E345R/K360E/D399M/Y407A/K409V (SEQ ID NO: 58) with light chain SEQ ID NO: 61 (antibody, also called Sample No. 230) heavy: QVQLQESGPGLVRPSQTLSLTCTVSGYSITSDHAWSWVRQPPGRGLEWIGYISYSGITTYNPSLKSRVTMLRDTSKNQFSLRLSSVTAADTAVYYCARSLARTTAMDYWGQGSLVTVSSASTKGPSVFPLAPSSKSTSGGTAALGCLVKDYFPEPVTVSWNSGALTSGVHTFPAVLQSSGLYSLSSVVTVPSSSLGTQTYICNVNHKPSNTKVDKRVEPKSCDKTHTCPPCPAPELLGGPSVFLFPPKPKDTLMISRTPEVTCVVVDVSHEDPEVKFNWYVDGVEVHNAKTKPREEQYNSTYRVVSVLTVLHQDWLNGKEYKCKVSNKALPAPIEKTISKAKGQPRRPQVYTLPPSREEMTENQVSLTCLVKGFYPSDIAVEWESNGQPENNYKTTPPVLMSDGSFFLASVLTVDKSRWQQGNVFSCSVMHEALHNHYTQKSLSLSP light: not shown | – | 84.3
0 | IgG1 full-length heavy chain E345R/Q347R/K360D/T366V/D399M/Y407A/K409V (SEQ ID NO: 55) with light chain SEQ ID NO: 61 (antibody) heavy: QVQLQESGPGLVRPSQTLSLTCTVSGYSITSDHAWSWVRQPPGRGLEWIGYISYSGITTYNPSLKSRVTMLRDTSKNQFSLRLSSVTAADTAVYYCARSLARTTAMDYWGQGSLVTVSSASTKGPSVFPLAPSSKSTSGGTAALGCLVKDYFPEPVTVSWNSGALTSGVHTFPAVLQSSGLYSLSSVVTVPSSSLGTQTYICNVNHKPSNTKVDKRVEPKSCDKTHTCPPCPAPELLGGPSVFLFPPKPKDTLMISRTPEVTCVVVDVSHEDPEVKFNWYVDGVEVHNAKTKPREEQYNSTYRVVSVLTVLHQDWLNGKEYKCKVSNKALPAPIEKTISKAKGQPRRPRVYTLPPSREEMTDNQVSLVCLVKGFYPSDIAVEWESNGQPENNYKTTPPVLMSDGSFFLASVLTVDKSRWQQGNVFSCSVMHEALHNHYTQKSLSLSP light: not shown | – | 83.5
0 | IgG2 full-length heavy chain Q347E/S354Y/T366Y/Y407T (SEQ ID NO: 99) with light chain SEQ ID NO: 61 (antibody, also called Sample No. 233) heavy: QVQLQESGPGLVRPSQTLSLTCTVSGYSITSDHAWSWVRQPPGRGLEWIGYISYSGITTYNPSLKSRVTMLRDTSKNQFSLRLSSVTAADTAVYYCARSLARTTAMDYWGQGSLVTVSSASTKGPSVFPLAPCSRSTSESTAALGCLVKDYFPEPVTVSWNSGALTSGVHTFPAVLQSSGLYSLSSVVTVPSSNFGTQTYTCNVDHKPSNTKVDKTVERKCCVECPPCPAPPVAGPSVFLFPPKPKDTLMISRTPEVTCVVVDVSHEDPEVQFNWYVDGVEVHNAKTKPREEQFNSTFRVVSVLTVVHQDWLNGKEYKCKVSNKGLPAPIEKTISKTKGQPREPEVYTLPPYREEMTKNQVSLYCLVKGFYPSDIAVEWESNGQPENNYKTTPPMLDSDGSFFLTSKLTVDKSRWQQGNVFSCSVMHEALHNHYTQKSLSLSP light: not shown | – | 76.3

Source: patent publication US20260217835A1 (published 2026)
